Assay results reported in article PMC4419837, “Purification and characterization of DR_2577 (SlpA) a major S-layer protein from Deinococcus radiodurans” (Frontiers in Microbiology, 2015).
Several values for one entry are separate records, joined by “and”; a condition that tells them apart may be missing. Identical values can stand only once.

Columns and labels:
[1] = biological target: the molecule itself; assay: SDS-PAGE; standard denaturation: Rotiload, not boiled and not treated with tris-2-carboxy-ethylphosphine; polyacrylamide/urea gel; mass estimated against prestained standard; dimer
[2] = biological target: the molecule itself; assay: native gel or EMSA; BN-PAGE, 3-12% gradient gel, 205 V for 5 h at 4°C, about 0.1 ug protein from the main SEC peak; mass estimated against NativeMARK; hexamer

B1: DR_2577 (SlpA), major S-layer protein from Deinococcus radiodurans (natural protein, UniProt Q9RRB6 23-1167, looked up)
chain: APVSAPQVPALTDVPAGHWAKDAIDRLVSRGVILGYPDGTFRGTQNLTRYEAAIIIARLLDQMRDGETPAGMTAEDMTALQNAIQELAADLAALGVRVSDLEANAVSKDDFARLEARIEEVAAAGGEQGATEALQGQIDDLTARVDEYDALRADVDDNASSIAALNDLTVLLNQDILDLQDRVSAVEAAQADFVQRSDFDALGGRVTTVETRVETVNNSLTGRIAALERNAFSVKPSLTIGYSVSRTSRNFDVDRLFPLNADGTVANNAFTSGGIDTDTGAQRRDFGDFGNASDPVVAGAAGLYGFADGVSYTVYFTDGSTATFDGLNPADYKVPTGKVIDTTKGRNGFGFNNLARYKEGSTDIGISLGFDTSGQFSQVTSGTGGSLFSTAGRLQVNQIDLNFGLVTGLPSDAYVDTNGNGKKDDGEATGRGTYLGSGGTAAILRDPAGNVYRPVFFRFKNATTQFSVGNNPVIVTLGQQQKFYFSDYVFDNNYDGRGDGFTVTVDGSNVPVIGAWKPQIKGVYGSRSGLDGTAEAGYGVYYRGVRAQITPVGTLTAGIHYAQEGRDMFGAAQNTTSTPSDVTTYGADLHGKAFGVELHSEYATSRVRPNTANAAVQTSNAFYARVATRKDNLAFDLNTPAAKFGNDTFGVSLYDLNYRKIDAGYNNVAGISEYGYGSYSRTSAQNIAYNPDTGVTAPFANLDRQAYTDANNDGTSDRNADGTVVATNTKIGQMGFGVKAAANLGPVAIGGYYDTSTGANGDNANRMTEAGGSAKVAYSIFSLRGTYNTLDSNRPQIYRDAAGTQIIGDAKVRRYAVQADVTPGLGLFVGAYYRDVNVNGVRSTTDRGLLGRGYLASSFEPGVGNNAYRTGLRCADNNFGTGTRDIDGVGGVLNPAVNLDQSRTATCFTSYGVEAGHAGDNANALVKDLFFRVGYSRVYVPTTATATTGDFSGSVTYGDARYDRKVGVANVRLAGSFSTTNTQLDSRPAGTRGAVGLIVRTDPLENVPFRPQFNGQVGYYTADNRVAAGNYNANATKYGAGVVLNDFLLPQTKIGVRYDGYMAQNRQYTPFDGDGTQGYFSDANNNRRTNLNGVYVEGAYQDLIFSYGTYTLSQKDLNGVEYGSGINNGQPARGQTFKISYKVNF
notes: DR_2577 (SlpA), S-layer protein of Deinococcus radiodurans R1; cysteines at residues 896 and 929; Native protein isolated from the bacterium; It infers that the dimers are held by an intermolecular disulfide bond, and only a computer prediction assigns that bond to Cys929
stoichiometry N [1]: 2.25 and 2.17
stoichiometry N [2]: 6.22 and 5.95
